Tested on: Saccharomyces cerevisiae
Test: transcriptional activation domain activity (GFP:mCherry ratio, weighted mean of sorted bins, harmonized to initial dataset scale) (arbitrary fluorescence ratio units); higher = stronger transcriptional activation
Details: beta-estradiol 1 µM; induction time 4 h
Procedure, shortened: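 Barcoded tiles were sequenced after cells were sorted into 8 bins by GFP:mCherry ratio. Before sorting, cultures had been diluted 1:5 into SC with 1 uM beta-estradiol and held for 4 hours at 30 °C. The tiles were fused to an estradiol-inducible synthetic transcription factor and integrated at URA3 in yeast diploids carrying a GFP reporter. Activation activity is the read-weighted mean of bin median fluorescence, averaged over barcodes and linearly mapped onto the initial dataset scale, and tiles under 50 reads were left out.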

Going from “MPFGRRSAFGVFFIYHFFFVLHLIFTGFQSIFVYIGLSKLFFFWFGPFFFLFP” to “LLVRLRKEYYLALFIFWRVGYNVLLGLMLRSQSDWNLLVRFAKRYGFGQNAGK”, the “transcriptional activation domain activity” value falls from 61800 to 48800.

Compared with “MMAMAFDPGFRDDEVVQFLLYELGVSSLLFCFVCFGDFVDFLDPFAFWVDLLF”, “VSRLHAKIEYEEEEERFVLVVIGRNGAWVDGVWSGASSRVPLGERSQIQIASR” is higher in “transcriptional activation domain activity” value: 48600 for the first, 65500 for the second.

Compared with “IWRRQQVELWCNYRVPGRQWLFGHKRLRHVIHLIPGRTHLSLYSSVDRIFCLH”, “KGKGRREGGEGGEEREGNRERKRGRGREGKGGKERGNGRGKEGQRKEEREGKG” is lower in “transcriptional activation domain activity” value: 48600 for the first, 33500 for the second.

Compared with “NIHLVNMAQVVVIFFHRLLYGIIPLFEITTCAFFPVLVSLWHLAYILFYVVMF”, “SIPPPPPPPAPPGPSRGGPPPPPPPPPPGGRGGAPPPPPPPPGGRAPPAPPAP” is lower in “transcriptional activation domain activity” value: 69100 for the first, 22100 for the second.

First: MFRLLEESFRYEPFVTFGLAVFACYFALIALNVVYYYYLFHFLWFCSYAFLAL
Second: LSLLVLGCWIPCIVVMEGYLRSLTFESFPYPGLYCFTSQGSHIVYLCWVLVAV
The “transcriptional activation domain activity” value of the first is higher: 51600 for the first, 46200 for the second.

First: RAYGCEAAFITVLQEKINHYTRCARVFYNLNRWVAVRLELLSSLFTTALAAYL
Second: PTPSGDPEEEEEGEGEEGGEERGGGGGGGGGKKKNHAGAIAGGVVGGVAVIGL
The “transcriptional activation domain activity” value of the first is higher: 63400 for the first, 24600 for the second.

Compared with “NIPIESSWHLFTNYVGLDIKQIVLLGKSLHYFNPGFLLHVNLFNWLWPKIVQL”, “MARLLFIPIFVNLSFPHHKSYFFLTSMLTLLLQLYLLLSLCWLILLLPCLKDS” is lower in “transcriptional activation domain activity” value: 63300 for the first, 40400 for the second.

First: GYIVFLSMVMIHTDSRLDHLGKRSVLSEENSKNSWQLLVLFLHQLSTYWLLPK
Second: MTVSWLRRLGTFLFEFFFFFSFFSFFFFLFSFFFFLFFLFSYFPFFSFFSFFS
The “transcriptional activation domain activity” value of the first is higher: 57900 for the first, 21600 for the second.

Compared with “KEVKEGEEGEKPKRGRKRKEAPAENGEKEPAAKKAKLASKAAPGSKPASKAAS”, “GNNKPRGNNQRGGARNVRNGAEAGDEEAPREQRDSRSSRGRGEGRGRGRGRGG” is higher in “transcriptional activation domain activity” value: 28300 for the first, 31700 for the second.

First: YLHAVLCELQSSFNRKATTRSKLTHTPNLPEYTFPFAWLTLPFAAARRCTPAG
Second: DTMIRLFVGWLEEDPSSDRVLPRVHLGEIGIPVKLDLSSPSAVLVVSRLLCSL
The “transcriptional activation domain activity” value of the first is lower: 66600 for the first, 74100 for the second.

Going from “LHLMLQKLCFAATLRIATLPDKHPLHPFVKRVYRYLFLKSHRAPRHNLFEAFQ” to “MTWFGILPPFSWPWIYPRSFGMCGNLSTTLFLHVLIALFFFFCLFFHLCLLWL”, the “transcriptional activation domain activity” value falls from 55000 to 50200.

First: CPFLKCTVYLRTIKHYLFVLVFLPLDALFSIALSCYALSYARVLVVPLALSIF
Second: EIKEATGEEHQEEQEDAIDSKEKVVMQSCPEVSLRRIRRLLRKHKGDPNKVID
The “transcriptional activation domain activity” value of the first is higher: 53700 for the first, 27300 for the second.

Compared with “KAMGLLDSARIVSWHVSYSLVHLPSWISFAIIYKVRLFVKTNILILLVVHVLF”, “LFVFLLFVLFLLVLFMLVLLLLFLPLLLLLPLLLWILWILILRLFFSFLDISD” is lower in “transcriptional activation domain activity” value: 41600 for the first, 36900 for the second.

First: ILRVERTGHSGTLDPKVTGCLIVCIDRATRLVKSQQGAGKEYVAVIRLHGKLP
Second: AREIISAGWAKVHDSGSRRNANSQPEEEEEGGWKAKLRELQEEAKAAARGVWG
The “transcriptional activation domain activity” value of the first is lower: 33800 for the first, 35300 for the second.

Going from “RFMVVIVSLFPRLNYFMDAVGHVLSVYYFNHLACQWITTAITSLAIVLFALRT” to “LLESLGHDDSLEFFFVSGMLRYVRFGFWRRIIGYQFRNLRTQITRSIYYDWYR”, the “transcriptional activation domain activity” value falls from 53900 to 45500.

First: MPFFSDFLFLFLFFFLEFFFFFFLPGFRLGYSSLFSSLLFFFFGFPIPPPHLS
Second: GIFCSPFFPFFVPLFCPPFPPPSLFPPLCISLPLSMPNSLLFLFTILYEYAGC
The “transcriptional activation domain activity” value of the first is lower: 46200 for the first, 56200 for the second.

Compared with “DKEKMEDGLIRVRLYFFTKLAGKPFYPTLLWSCLHSLTLKRLVALLRKSQLSA”, “MKVDLNKHPSCRRIIWVGYTKICTFLIPDKLLVYLSLTTQARRIAWREKLTLF” is lower in “transcriptional activation domain activity” value: 68900 for the first, 59600 for the second.

First: FIRSQLGSVMPTIALSLMKDVLFRLEQLFLNRECHEWPVALAVLIIVLMTIES
Second: AILLLSAYVLFLVVWLIFFSRVILLIPFFPGTPYNLAMPVVLLGLFYCFVFTW
The “transcriptional activation domain activity” value of the first is higher: 52800 for the first, 32700 for the second.

Going from “MDPEQATDAKPPKPPVVRGARACTVCRAAKMKCVGAEDGQKPCQRCKRANVEC” to “LLLFIHSLIHGTMLLFWRWPMLSILQVPMHPFLLLVCFNLFSQSVPPVLVSAA”, the “transcriptional activation domain activity” value rises from 53000 to 59500.

Going from “VLGNLLCAILFRNELWMRFLYLVFIYGLRGVSWAPLSIKYAATSILQHVGGIH” to “MLLFSKLYYEAVGVGCLSYFDFQSLQVWVLDICASWYFVLAFNSYFVVSLFFG”, the “transcriptional activation domain activity” value rises from 29200 to 36200.

First: KAAPEDKEPEPVAVSYKVNDTVMAKWVSGDKGYYPARITSVTGSSTDPIYVVK
Second: MYGHVWMGVLHCKLLLVGFLWVLFTLMPDMYIHGREGINSAYTIGHSFTIGFA
The “transcriptional activation domain activity” value of the first is lower: 19800 for the first, 47400 for the second.

Going from “FPEMITILIFTWSHNPLPHLVWHNQQECGSSLSTRFLCIFAVILCIWFVKRVF” to “IEKLGITVLQREVVNNGLEISHDFRALRVALCARQPLLQVVWFKNHLPSVYYF”, the “transcriptional activation domain activity” value rises from 59700 to 69900.

Going from “IGMQLLLTWAYIRLNPFAVYSSPYIILFSFWSLGYLVLVYTLTLPSSLPFYHS” to “GILRYCKIWLAWVQIHFGVHFFVLTIWYRMWNLHRLVVQQKLLSGWSYYLPII”, the “transcriptional activation domain activity” value falls from 46800 to 36800.

Going from “MWVLGRSWAVLSTFFLSLLRLFFCLLFLLGLDFWSGLLPFLCFFLLCSYCFSL” to “MSGTNNSAAPPSYFDKAKDAMHSVVGNLTGHDDKETSSKPYVPTVSSACTAVV”, the “transcriptional activation domain activity” value rises from 56400 to 61800.

First: HFLLLPSLFLFSSFLPFLTSLPPHSPFFFLSFLFFSPLFSLFFLFINSTHFLP
Second: GASVDIHVTYQSSVKEGDEVEIEGIAEKVGGSLAFTKVNIFRVEDGERGRPVA
The “transcriptional activation domain activity” value of the first is higher: 41700 for the first, 36800 for the second.

Compared with “EDRHSSKRRRERSRSPVRDTRRRSRSPAARGKNDEDRRDRRRSSSRERDRRRG”, “MGRDSSLPYFNSPSFWVAFFWSGAGLFFSFFTGFIYFPEQIFFPLFFFLFFED” is higher in “transcriptional activation domain activity” value: 32600 for the first, 58800 for the second.

Compared with “MLLPFVCLLFFLLAFLFSLSLSALFCFSKRRLIPILFFIASLLLYNFVFPPFF”, “FSFGLYLLYHSPYWMNVAQLWVNYPHIEFMPGIKKYYLIQMSYWLQQMYFIQI” is higher in “transcriptional activation domain activity” value: 38400 for the first, 48700 for the second.

Compared with “GGETAAPPAEPAPAPAAEPEEEEEPVKGKGKGGKGGKKGGKGGKKAKKEEVPA”, “MQMIFFLSLTFLILLFFFFFFFSSFPFPFTIITFYISNPLFYFVTLLVSITYF” is lower in “transcriptional activation domain activity” value: 23600 for the first, 19100 for the second.

Going from “EHVHVNKIPVRVSHGSGFELMGKSSFIFKGFRSLGILMLIFWSKANHILIVTV” to “APTAARVVPSACPSSVTSRATATATMTSPGGGSRSSSRTAAAAAPTGAAVARC”, the “transcriptional activation domain activity” value falls from 70700 to 48400.

First: MMRKLAYFYALPEVQNSKVLQTIVKKGFVPLLIALIFPRVTEDQLRVVIRFCQ
Second: HRGVSVGIQFAPAGSSWYVEPHKCLIWKSFYFLMMYFMHMCVEYVLLLRVLAL
The “transcriptional activation domain activity” value of the first is higher: 50000 for the first, 41200 for the second.

For “EHSTTGDSWFLGLVLCYPLRSYGYFMLFFIWLRLFLVLAFQFLLYACNYLFIL”, the “transcriptional activation domain activity” value was 62200.
